In publication doi:10.1101/2024.03.04.583305:

Tests used:
Experiment in all cases: EMSA
DuoMYC (7) (synthetic) = DuoMYC (7) (synthetic) (UniProt P01106)
DuoMYC (5) (synthetic) = DuoMYC (5) (synthetic) (UniProt P01106)
monoMYC (4) (synthetic) = monoMYC (4) (synthetic) (UniProt P01106)
Chain of monoMYC (4) (synthetic) (P01106 365-423): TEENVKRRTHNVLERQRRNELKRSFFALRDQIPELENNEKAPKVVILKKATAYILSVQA

Chain of DuoMYC (5) (synthetic) (P01106 365-423): as above
Chain of DuoMYC (7) (synthetic) (P01106 whole entry): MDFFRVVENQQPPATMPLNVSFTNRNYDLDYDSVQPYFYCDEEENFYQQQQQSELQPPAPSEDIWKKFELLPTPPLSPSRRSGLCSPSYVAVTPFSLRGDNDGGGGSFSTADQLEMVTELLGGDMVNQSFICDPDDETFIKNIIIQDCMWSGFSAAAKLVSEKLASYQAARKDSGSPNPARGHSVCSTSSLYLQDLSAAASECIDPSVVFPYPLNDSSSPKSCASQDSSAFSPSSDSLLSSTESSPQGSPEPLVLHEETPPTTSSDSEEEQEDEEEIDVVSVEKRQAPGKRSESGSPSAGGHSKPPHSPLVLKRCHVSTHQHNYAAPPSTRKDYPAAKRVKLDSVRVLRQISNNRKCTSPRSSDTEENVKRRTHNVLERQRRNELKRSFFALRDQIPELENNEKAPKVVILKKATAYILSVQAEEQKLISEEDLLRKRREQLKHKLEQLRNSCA

## ACCCCACCACGTGGTGCCT (double strand) [E-Box DNA]
DuoMYC (7) (synthetic)
  Kd: 174 nM
DuoMYC (5) (synthetic)
  Kd: 118 nM
monoMYC (4) (synthetic)
  Kd: 969 nM
